Measured values from the Human Domainome abundance scans (Beltran et al. 2025).

B1: Histone H1t, residues 44 to 112; numbered along this chain, P22492 (parent)
chain: VSKLITEALSVSQERVGMSLVALKKALAAAGYDVEKNNSRIKLSLKSLVNKGILVQTRGTGASGSFKLS

Variants of: B1
Assay: abundance fitness (aPCA) (normalised: wild type 0, dead -1); higher = more abundant; growth selection in yeast, the domain comes from the species named
Conditions: Homo sapiens

Abundance fitness, by site and new letter:
A30: H -0.312; Y -0.266; F -0.368; E -0.404; M 0.021; L -0.224; D -0.328; C -0.136; S -0.09; G -0.162; Q -0.137; R 0.051; P -0.364; I -0.318; V -0.158; T -0.048; N -0.271; W -0.15
K25: Y -0.827; A -0.225; P -1.34; W -0.602; T -0.352; G -0.231; D -0.158; V -0.627; M -0.785; H -0.325; L -0.862; N -0.171; S -0.23; E -0.085; F -0.892; I -0.697
L23: P -0.885; G -1.27; I -0.087; R -0.942; Y -0.933; A -0.384; C -0.363; N -0.95; D -1.22; E -0.47; K -1.12; F -0.197; V -0.076; S -1; H -1.05; M -0.226; W -0.541
G17: M -0.296; P -0.484; W -0.49; L -0.478; N 0.015; S -0.24; C -0.17; I -0.254; K 0.157; Q -0.075; V -0.1; T -0.134; A -0.07; H -0.116; D -0.398; Y -0.4; R -0.025; F -0.465
K24: L -0.418; D -1.33; N -0.359; I -0.738; R -0.161; F -0.494; E -0.363; C -0.579; M -0.295; Y -0.164; W -0.533; P -1.22; G -0.485; S -0.656; T -0.267; H -0.694
E14: A -0.456; S -0.274; K -0.449; M -0.649; R -0.61; L -0.71; T -0.4; F -0.852; V -0.651; N -0.508; H -0.373; D -0.271; C -0.838; Y -0.67; Q -0.456; I -0.712
G31: H -0.366; E -0.89; D -0.752; C -0.27; A -0.202; F -0.285; I -0.316
A28: W -0.327; N -0.18; E -0.197; F -0.231; C -0.175; L -0.087; G -0.106; R 0.003; I -0.059; Y -0.124; V -0.098; S -0.114; M -0.089; D -0.258
V16: I -0.058; F -0.224; T -0.024; K -0.16; P -0.416; D 0.347; R -0.718; M -0.076; Y -0.045; H -0.031; A 0.037; N 0.042
V21: D 0; F -0.142; C -0.164; A 0.091; S 0.018; P -0.199; N 0.123; W -0.16; E 0.038; R 0.113; M -0.037; Q 0.181; Y -0.207; H 0.061; L -0.062; I -0.067
M18: F -0.481; L -0.077; R 0.107; E -0.108; C -0.127; Y -0.487; T -0.006; G -0.129; N 0.016; K 0.238; I -0.37; S 0.009; V -0.318; D -0.359; W -0.374
S12: K -0.275; E -0.429; P -0.486; W -0.416; N -0.202; H -0.353; A -0.007; R -0.511; I 0.042; V 0.095; D 0.019; M -0.093; Y -0.48; F -0.038; Q -0.034; L -0.005; C 0.024; G 0.019
A29: R 0.002; L -0.255; Q -0.081; G -0.223; I -0.248; P -0.491; K 0.153; E 0.066; V -0.215; F -0.276; W -0.323; H -0.236; M -0.097; T -0.04; D -0.085; C -0.088; S -0.039
S19: P -0.324; R -0.224; N -0.088; F -0.043; V -0.11; C -0.155; M -0.153; A -0.205; T -0.056; Q -0.171; D 0.08; Y -0.381; K -0.021; G 0.147; E -0.558; W -0.145; L -0.111
A26: D -0.954; S -0.121; P -0.906; T -0.106; C -0.14; F -0.172; M -0.033; L -0.138; E -0.252; R -0.415; I -0.171; K 0.07; V -0.064; Q -0.381; H -0.167; N -0.401
Q13: M -0.377; W -0.471; A -0.286; Y -0.212; S -0.242; G -0.211; N -0.206; E -0.05; V -0.342; F -0.613; R -0.093; L -0.33; C -0.233; T -0.128; K 0.014; D -0.222
V11: I -0.185; D -0.138; G -0.101; E -0.106; R -0.013; F -0.138; L -0.129; N -0.144; W -0.04; Y -0.027; M -0.255; K 0.053; S -0.061; C -0.077
S10: W -0.788; Y -0.286; V -0.167
L20: S -0.561; Q -0.5; K -0.239; E -0.046; Y 0.01; T -0.351; C -0.205; F 0.013; H -0.465; N -0.724; A -0.234; G -0.412; D -0.346; M -0.022; P -0.841; W -0.008; R -0.537; V -0.048; I -0.026
A22: G -0.45; E -0.801; Q -0.003; N -0.262; Y -0.034; C -0.034; H -0.158; L -0.393; D -0.118; V -0.358; S 0.051; K -0.192; W -0.101; I -0.699; F -0.413; T -0.305
L27: R -1.12; K -0.999; H -0.838; W -0.371; N -0.906; C -0.394; P -1.06; T -0.696; I -0.116; M -0.159; G -0.681; D -0.677; A -0.506; Q -1.06; F -0.221; V -0.202; S -0.746
R15: E 0.084; F -0.258; S -0.089; L -0.501; Y -0.338; P -0.163; V -0.45; D 0.096; H -0.061; M -0.364; I -0.312; G -0.15; K 0.234; N 0.063; T 0.05; Q -0.143
